Assays:
Experiment in all cases: DNS reducing sugar assay, Lineweaver-Burk
Format in all cases: biochemical, Bacillus amyloliquefaciens
Conditions in all cases: 50 mM PBS pH 7.5, 55 °C, 20 min
[1] = substrate: OC[C@H]1O[C@@](CO)(O[C@H]2O[C@H](CO)[C@@H](O)[C@H](O)[C@H]2O)[C@@H](O)[C@@H]1O
Source text: (§1) DNS reducing sugar assay, Lineweaver-Burk on CscA (inulin hydrolase)

[2] = substrate: OC[C@H]1O[C@H](OC[C@H]2O[C@H](OC[C@H]3O[C@H](O[C@]4(CO)O[C@H](CO)[C@@H](O)[C@@H]4O)[C@H](O)[C@@H](O)[C@@H]3O)[C@H](O)[C@@H](O)[C@H]2O)[C@H](O)[C@@H](O)[C@H]1O
Source text: as §1

[3] = substrate: OC[C@H]1O[C@H](OC[C@H]2O[C@H](O[C@]3(CO)O[C@H](CO)[C@@H](O)[C@@H]3O)[C@H](O)[C@@H](O)[C@@H]2O)[C@H](O)[C@@H](O)[C@H]1O
Source text: as §1

B1: CscA (inulin hydrolase) (Bacillus amyloliquefaciens DSM 7 = ATCC 23350) (protein)
chain: MDRIQQAEEALKKAEGKVKQRYRLGYHIMPRANWINDPNGLIQFKGEYHVFFQHHPFDENWGPMHWGHVKSKDLIHWEHLPIALAPGDAFDQSGCFSGSAVDDRGRLVLIYTGHNMIDPEKDLFYQTQNIAVSQDGAVFEKLQDNPVIAEPPEDSSRHFRDPKVWKHRGDWYMVVGNSTKENVGRVILYRSSDLRNWEYAGVLAQSDGHLGYMWECPDFFELGGKHVLLISPQGIEADGDSYKNLHQTGYLIGDYNDETNKFTHGAFKELDHGHDFYAVQTLLDDKGRRIAVGWMDMWESEMPTKADGWCGALTLPRELTLRDDHKLLMNPVEETKQLRKMKYRECAGRSVSGSYLAKTSEELLEVQVVYDVNDCDAETAGIKIRGLDEEELVLKYNLTDKKLTLDCTKMGKAKDGVRRVRMDASGKLALRIFIDRSSIEVFANHGEATMTSRIYPKEGRLGLELFSEKGAVKVEEFTYWTLKDIWKKS
notes: full-length ORF (1470 bp, 489 residues, no signal peptide), pET-28a BamHI/XhoI, His-tagged, expressed in E. coli BL21(DE3), Ni-NTA
Km [1]: 4.33 ± 0.03 mM | Vmax [1]: 1760 µmol/min/mg | kcat/Km [1]: 398000 ± 20000 M⁻¹ s⁻¹ | Km [2]: 19.08 ± 0.09 mM | Vmax [2]: 687 µmol/min/mg | kcat/Km [2]: 36500 ± 667 M⁻¹ s⁻¹ | Km [3]: 12.25 ± 0.07 mM | Vmax [3]: 724 µmol/min/mg | kcat/Km [3]: 57500 ± 1330 M⁻¹ s⁻¹

Reference: paper PMC6563369, “Systematic unravelling of the inulin hydrolase from Bacillus amyloliquefaciens for efficient conversion of inulin to poly-(γ-glutamic acid)” (Biotechnology for Biofuels, 2019)
